T1: human SEMA4D, full length, on CHO-K1 cells (CHO-K1 hSEMA4D) (human, UniProt Q92854 22-862)
T1 construct: whole, on cells; also called human SEMA4D recombinant cells
T1 sequence (looked up): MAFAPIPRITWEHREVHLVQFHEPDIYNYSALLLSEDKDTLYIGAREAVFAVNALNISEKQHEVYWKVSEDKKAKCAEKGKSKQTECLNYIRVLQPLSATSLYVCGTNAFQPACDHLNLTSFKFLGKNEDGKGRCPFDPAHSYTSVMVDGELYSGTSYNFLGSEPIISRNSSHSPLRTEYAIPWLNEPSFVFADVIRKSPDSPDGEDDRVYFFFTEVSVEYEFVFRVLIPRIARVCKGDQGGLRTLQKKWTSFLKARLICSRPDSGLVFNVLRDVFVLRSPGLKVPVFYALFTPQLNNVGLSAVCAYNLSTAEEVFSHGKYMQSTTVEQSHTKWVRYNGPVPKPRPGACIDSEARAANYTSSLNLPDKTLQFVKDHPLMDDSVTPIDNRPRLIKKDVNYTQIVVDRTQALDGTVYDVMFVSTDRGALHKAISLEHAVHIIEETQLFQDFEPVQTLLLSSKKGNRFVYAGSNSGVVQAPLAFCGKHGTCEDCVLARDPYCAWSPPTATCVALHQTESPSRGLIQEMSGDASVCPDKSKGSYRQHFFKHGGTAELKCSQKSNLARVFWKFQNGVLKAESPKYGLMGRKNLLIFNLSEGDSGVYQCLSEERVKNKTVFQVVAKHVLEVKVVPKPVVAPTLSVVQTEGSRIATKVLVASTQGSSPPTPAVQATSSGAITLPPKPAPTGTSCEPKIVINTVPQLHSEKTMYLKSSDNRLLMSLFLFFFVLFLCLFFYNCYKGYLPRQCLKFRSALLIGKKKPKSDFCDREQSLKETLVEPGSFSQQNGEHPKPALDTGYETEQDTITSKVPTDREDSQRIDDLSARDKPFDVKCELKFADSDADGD

T2: mouse SEMA4D, full length, on CHO-K1 cells (CHO-K1 mSEMA4D) (mouse, UniProt O09126 24-861)
T2 construct: whole, on cells; also called murine SEMA4D recombinant cells
T2 sequence (looked up): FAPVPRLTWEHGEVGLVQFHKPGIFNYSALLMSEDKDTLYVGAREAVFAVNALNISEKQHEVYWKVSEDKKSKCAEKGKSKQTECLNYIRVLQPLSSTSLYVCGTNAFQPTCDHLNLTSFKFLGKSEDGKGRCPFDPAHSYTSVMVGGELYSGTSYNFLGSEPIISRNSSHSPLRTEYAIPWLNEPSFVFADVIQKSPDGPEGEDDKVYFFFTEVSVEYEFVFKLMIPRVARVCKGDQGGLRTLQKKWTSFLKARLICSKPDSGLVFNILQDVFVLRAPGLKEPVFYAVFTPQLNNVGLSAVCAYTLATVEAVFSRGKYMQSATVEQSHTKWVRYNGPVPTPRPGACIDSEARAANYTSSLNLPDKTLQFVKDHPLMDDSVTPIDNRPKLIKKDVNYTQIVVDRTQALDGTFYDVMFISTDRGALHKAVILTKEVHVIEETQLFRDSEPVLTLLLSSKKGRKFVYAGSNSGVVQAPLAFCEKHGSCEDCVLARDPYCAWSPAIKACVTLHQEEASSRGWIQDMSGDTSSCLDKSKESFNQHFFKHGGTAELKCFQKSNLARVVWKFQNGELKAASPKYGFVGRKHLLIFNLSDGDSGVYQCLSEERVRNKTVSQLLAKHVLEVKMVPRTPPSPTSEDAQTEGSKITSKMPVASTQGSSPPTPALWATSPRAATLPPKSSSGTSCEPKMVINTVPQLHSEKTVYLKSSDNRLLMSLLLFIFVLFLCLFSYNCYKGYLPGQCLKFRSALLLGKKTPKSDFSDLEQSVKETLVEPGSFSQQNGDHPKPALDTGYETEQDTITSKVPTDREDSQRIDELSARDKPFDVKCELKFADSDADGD


Key:
[1] = biological target: T1, human SEMA4D, full length, on CHO-K1 …; experiment: FACS, CHO-K1 hSEMA4D cells; Ab 2.67 nM
Method: (§1) The medium was aspirated, the cells were washed once with PBS buffer (purchased from Invitrogen), and then treated with cell dissociation fluid (TrypLE™ Express Enzyme, purchased from Life technology), and the cells were collected. After the cells counted, the cells were washed once with PBS phosphate buffer, and diluted to 3×10⁶ cells per milliliter, and added to the 96-well FACS reaction plate as 100 μL per well. 2% (w/w) fetal calf serum was added to PBS phosphate buffer as FACS buffer, with which the cells were washed once by centrifugation at 2000 rpm 4° C. 100 μL of diluted and purified leading antibodies was added to each well and the plate was incubated for 1 hour on ice. […] Cells were washed 2 times by centrifugation with FACS buffer. The cells were suspended with 200 μL of FACS buffer, and FACS (FACS Verse, purchased from BD) was used to detect and analyze the results.

[2] = biological target: T2, mouse SEMA4D, full length, on CHO-K1 …; experiment: FACS, CHO-K1 mSEMA4D cells; Ab 13.3 nM
Method: After the cells were counted, they were diluted with PBS to 2×10⁶ cells per milliliter. After washing, 100 μL of diluted and purified leading antibodies was added to each well and the plate was incubated for 1 hour on ice. […] Cells were washed 2 times by centrifugation with FACS buffer. The cells were suspended with 200 μL of FACS buffer, FACS (FACS Verse, purchased from BD) was used to detect and analyze the results.

[3] = biological target: T1, human SEMA4D, full length, on CHO-K1 …; experiment: FACS, CHO-K1 hSEMA4D cells; Ab 0.0213 nM
Method: as §1

[4] = biological target: T1, human SEMA4D, full length, on CHO-K1 …; experiment: FACS, CHO-K1 hSEMA4D cells; Ab 0.000853 nM
Method: as §1

Binder | MFI [1] | MFI [2] | MFI [3] | MFI [4]
32C8F10 (antibody, V domains shown, Mouse monoclonal antibody purified from hybridoma supernatant on protein A) VH: EVQLQQSGAELVRPGASVKLSCTASGFNIKDEYIHWVKQRPEQGLEWIGWIDPANGHTEYASRFQAKATITADTSSNTAYLQLSSLTSEDTAVYYCTTGDYDGFAYWGQGTLVTVST VL: QIVLTQSPAIMSASPGEKVTISCSARSSVSYMYWYQQKPGSSPKPWIYRTSNLASGVPARFSGSGSGTSYSLTISSMEAEDAATYYCQHYHTYPYTFGGGTKLEIK | 6170 | 30.6 | 218 | 47.3
37C4F7 (antibody, V domains shown, Mouse monoclonal antibody purified from hybridoma supernatant on protein A) VH: EFQLQQSGPEVVKPGASVKISCKASGYSFTDYNMNWMKQSKGKSLEWIGVINPNYGTTTYNQNFKGKATLTVDQSSSTAYMQLNSLTSEDSAVYYCARDMYYVYAYYTMDYWGQGTSVTVSS VL: DVVMTQTPLSLPVSLGDQASISCRSSQSLVHSNGHTYLHWYLQRPGQSPTLLIYKVSNRFSGVPDRFSGSGSGTDFTLKISRVEAEDLGVYFCSQGTHVPWTFGGGTKLEIK | 2340 | 29.8 | 76.6 | 36.9
38H2E3 (antibody, V domains shown, Mouse monoclonal antibody purified from hybridoma supernatant on protein A) VH: EFQLQQSGPEVVKPGASVKISCKASGYSFTDYNMNWMKQSKGKSLEWIGVISPDYGTTTYNQNFKDKATLTVDQSSSTAYMQLNSLTSEDSAVYYCAKDMYYVYAYYTMDYWGHGTSVTVSS VL: DVVMTQTPLSLPVSLGDQASISCRSSQSLVHSNGHTYLHWYLQRPGQSPTLLIYKVSNRFSGVPDRVSGSGSGTDFTLKISRVEAEDLGVYFCSQGTHVPRTFGGGTKLEIK | 2370 | 31 | 78.7 | 36.7

Now from value to binder:

MFI [1] | MFI [2] | MFI [3] | MFI [4] | Binder
5860 | 30.9 | 225 | 47 | 31G10C5 (antibody, V domains shown, Mouse monoclonal antibody purified from hybridoma supernatant on protein A) VH: EVQLQQSGAELVRPGASVKLSCTASGFNIKDDYIHWVKQRPEQGLEWIGWIDPANGHIEYASNFQAKATITADTSSNTAYLQLSSLTSEDTAVYYCTTGDYDGFTYWGQGTLVTVST VL: QIVLTQSPAIMSASPGEKVTISCSARSSVSYMYWYQQKPGSSPKPWIYRTSNLASGVPARFSGSGSGTSYSLTISSMEAEDAATYYCQHYHTYPYTFGGGTKLEIK
5970 | 31.3 | 248 | 46.7 | 31C11G2 (antibody, V domains shown, Mouse monoclonal antibody purified from hybridoma supernatant on protein A) VH: EVQLQQSGAELVRPGASVKLSCTASGFNIKDEYIHWVKQRPEQGLEWIGWIDPANGHTEYASRFQAKATITADTSSNTAYLQLSSLTSEDTAVYYCTTGDYDGFVYWGQGTLVTVST VL: QIVLTQSPAIMSASPGEKVTIFCSARSSVSYMYWYQQKPGSSPKPWIYRTSNLASGVPARFSGSGSGTSYSLTISSMEAEDAATYYCQHYHTYPYTFGGGTKLEIK
2880 | 30.1 | 101 | 38.2 | 37F11F9 (antibody, V domains shown, Mouse monoclonal antibody purified from hybridoma supernatant on protein A) VH: EVQLQQSGPVLVKPGASVKMSCKASGYTFTDYYMNWVKQSHGKSLEWIGLINPYSGGSTFNQKFKAKATLTVDKSSSSAYMDLNSLTSEDSAVYYCARVGDGYYGVTHGMDYWGQGTSVTVSS VL: DIVMTPSQKFMSTTVGDRVSITCKASQNVGTAVAWYQQKPGQSPTILIYSASNRYTGVPDRFTGSGSGTDFTLTISNMKSEDLADYFCQQYYIYPFTFAAGTKLELK
3790 | 30.7 | 173 | 41.2 | 42B7G2 (antibody, V domains shown, Mouse monoclonal antibody purified from hybridoma supernatant on protein A) VH: QVQLQQSGAELARPGASVKLSCKASGYTFTDYGISWVKQRTGQGLEWIGEIYLRNDNSYYNEKFKGKATLTADKSSNTAYMELRSLTSEDSAVYFCARWGDHGNNYEDAMDYWGQGTSVTVSS VL: DIVLTQSPASLAMSLGKRATISCRASESVSIIGSNLIHWYQQKPGQPPKLLIYHASNLETGVPARFSGSGSRTDFTLTIDPVEEDDVAIYYCLQSRKVPYTFGGGTKLEIK

Reference: patent publication US20220073608A1 (JIANGSU HUAIYU PHARMACEUTICAL, published 2022)
